B1: Feline 15H05_VH1 mouse VL (antibody, V domains shown)
VH: QVLLVQSGAEVRTPGASVKIFCKASGYSFTSYTIHWLRQAPAQGLEWMGNINPTSGYTENNQRFKDRLTLTADTSTNTAYMELSSLRSADTAMYYCARWGFKYDGEWSFDVWGAGTTVTVSS
VL: DIQMNQSPSSLSASLGDTITVTCRASQGISIWLSWYQQKPGNIPKVLINKASNLHIGVPPRFSGSGSGTHFTLTITSLQPEDIATYYCLQSQTYPLTFGGGTKLEIN
B2: Feline 15H05 1.1 FW3 (antibody, V domains shown)
VH: B1 VH
VL: EIQMTQSPSSLSASPGDRVTITCRASQGISIWLSWYQQKPGKVPKLLIYKASNLHIGVPPRFSGSGSGTHFTLTITSLQPEDIATYYCLQSQTYPLTFGGGTKLEIK
B3: Feline 15H05 1.1 FW2_3 (antibody, V domains shown)
VH: B1 VH
VL: B2 VL with K42N, V43I, L46V, Y49N
B4: Feline 15H05 1.1_FW1_2 (antibody, V domains shown)
VH: B1 VH
VL: B1 VL with P60S, H70D, T76S, Q79E, I83A, N107K
B5: Feline 15H05 1.1 FW2 (antibody, V domains shown)
VH: B1 VH
VL: B2 VL with K42N, V43I, L46V, Y49N, P60S, H70D, T76S, Q79E, I83A
B6: Feline 15H05 1.1 FW1 (antibody, V domains shown)
VH: B1 VH
VL: B1 VL with N42K, I43V, V46L, N49Y, P60S, H70D, T76S, Q79E, I83A, N107K
B7: Feline 15H05 VH2 mouse VL (antibody, V domains shown)
VH: B1 VH with S28G, L37V, A40S
VL: B1 VL
B8: Feline 15H05_VH3 mouse VL (antibody, V domains shown)
VH: B1 VH with T13K, A42E
VL: B1 VL
B9: Feline 15H05 1.1 K42N_V43I (antibody, V domains shown)
VH: B1 VH
VL: B2 VL with K42N, V43I, P60S, H70D, T76S, Q79E, I83A
B10: Feline 15H05 1.1 V43I (antibody, V domains shown)
VH: B1 VH
VL: B2 VL with V43I, P60S, H70D, T76S, Q79E, I83A
B11: Feline 15H05 3.3 (antibody, V domains shown)
VH: B1 VH with T13K, A42E
VL: EVVLTQSSAFLSRTLKEKATITCRASQGISIWLSWYQQKPNQAPKLLVKKASNLHIGAPSRFSGSGSGTDFTLTISSPEPEDAATYYCLQSQTYPLTFGGGTKLGDQ
B12: Feline 15H05 2.3 (antibody, V domains shown)
VH: B1 VH with S28G, L37V, A40S
VL: B11 VL
B13: Feline 15H05 1.1 L46V (antibody, V domains shown)
VH: B1 VH
VL: B2 VL with L46V, P60S, H70D, T76S, Q79E, I83A
B14: Feline 15H05 1.1 K42N (antibody, V domains shown)
VH: B1 VH
VL: B2 VL with K42N, P60S, H70D, T76S, Q79E, I83A
B15: Feline 15H05 1.1 Y49N (antibody, V domains shown)
VH: B1 VH
VL: B2 VL with Y49N, P60S, H70D, T76S, Q79E, I83A
B16: ZTS-361 (antibody)
heavy: QVLLVQSGAEVRTPGASVKIFCKASGYSFTSYTIHWLRQAPAQGLEWMGNINPTSGYTENNQRFKDRLTLTADTSTNTAYMELSSLRSADTAMYYCARWGFKYDGEWSFDVWGAGTTVTVSSASTTAPSVFPLAPSCGTTSGATVALACLVLGYFPEPVTVSWNSGALTSGVHTFPAVLQASGLYSLSSMVTVPSSRWLSDTFTCNVAHPPSNTKVDKTVRKTDHPPGPKPCDCPKCPPPEAAGAPSIFIFPPKPKDTLSISRTPEVTCLVVDLGPDDSDVQITWFVDNTQVYTAKTSPREEQFNSTYRVVSVLPILHQDWLKGKEFKCKVNSKSLPSPIERTISKAKGQPHEPQVYVLPPAQEELSRNKVSVTCLIKSFHPPDIAVEWEITGQPEPENNYRTTPPQLDSDGTYFVYSKLSVDRSHWQRGNTYTCSVSHEALHSHHTQKSLTQSPGK
light: EIQMTQSPSSLSASPGDRVTITCRASQGISIWLSWYQQKPGNIPKVLINKASNLHIGVPSRFSGSGSGTDFTLTISSLEPEDAATYYCLQSQTYPLTFGGGTKLEIKRSDAQPSVFLFQPSLDELHTGSASIVCILNDFYPKEVNVKWKVDGVVQNKGIQESTTEQNSKDSTYSLSSTLTMSSTEYQSHEKFSCEVTHKSLASTLVKSFQRSECQRE

Here are results for 16 molecules from patent US20190282704A1.

Residue numbers refer to the chain shown, from its start. Names may count otherwise.

In the first assay the target is canine IL-31 (Canine_IL31) (canine). As to the kind of experiment: SPR (Biacore), immobilised IL-31, 1:1 fit. For orientation: SPR reads the build-up and loss of mass on a sensor chip optically.
canine IL-31 (Canine_IL31) (canine), sequence (chain, as listed by the source limits assumed, form in doubt): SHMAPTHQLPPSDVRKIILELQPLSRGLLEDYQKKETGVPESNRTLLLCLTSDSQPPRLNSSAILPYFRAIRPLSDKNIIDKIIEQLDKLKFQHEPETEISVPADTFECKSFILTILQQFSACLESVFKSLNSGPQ
What is called Kd is the free concentration of one partner at which half of the binding sites on the other are occupied at equilibrium, for simple one-to-one binding. High values mean a looser complex, low ones a tighter complex. Broadly, the koff is a measure of how fast the partners let go of each other. Low readings indicate a long-lived complex, high ones a short-lived complex. One may read the kon as a measure of how fast the partners come together. B1 returned an equilibrium dissociation constant (Kd) of 0.00246 nM, a koff of 2.66e-07 s⁻¹ and a kon of 108000 M⁻¹ s⁻¹.

Molecule B2 showed an equilibrium dissociation constant (Kd) of 0.13 nM, a dissociation rate constant (koff) of 3.91e-07 s⁻¹ and an association rate constant (kon) of 3000 M⁻¹ s⁻¹.

B3 gave a dissociation constant (Kd) of 214 nM, an off-rate constant (koff) of 0.00193 s⁻¹ and an association rate constant (kon) of 9050 M⁻¹ s⁻¹.

Turning to B4, the Kd worked out at 0.263 nM, the koff amounted to 3.82e-06 s⁻¹ and the on-rate constant (kon) amounted to 6910 M⁻¹ s⁻¹.

Turning to B5, the equilibrium dissociation constant (Kd) stood at 0.000431 nM, the off-rate constant (koff) worked out at 1.66e-07 s⁻¹ and the association rate constant (kon) came to 384000 M⁻¹ s⁻¹.

B6 had a Kd of 813 nM, an off-rate (koff) of 0.0156 s⁻¹ and an on-rate constant (kon) of 19200 M⁻¹ s⁻¹.

As to B7, the Kd is 2.22 nM, the koff came out at 0.000379 s⁻¹ and the kon is 171000 M⁻¹ s⁻¹.

In turn, B8 had a Kd of 0.00264 nM, a koff of 2.64e-07 s⁻¹ and a kon of 100000 M⁻¹ s⁻¹.

The target of a further assay is wildtype feline IL-31 (Feline_IL31_wildtype) (feline). As to the kind of experiment: SPR (Biacore), immobilised IL-31, 1:1 fit.
wildtype feline IL-31 (Feline_IL31_wildtype) (feline), sequence (chain, as listed by the source limits assumed, form in doubt): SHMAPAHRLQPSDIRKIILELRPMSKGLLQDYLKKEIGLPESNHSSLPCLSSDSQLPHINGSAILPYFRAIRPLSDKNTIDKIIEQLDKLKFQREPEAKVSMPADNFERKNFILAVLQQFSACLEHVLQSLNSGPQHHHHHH
B1 came in with a Kd of 0.168 nM, a koff of 2.2e-05 s⁻¹ and a kon of 131000 M⁻¹ s⁻¹.

B2 returned an equilibrium dissociation constant (Kd) of 0.0564 nM, a dissociation rate constant (koff) of 1.21e-05 s⁻¹ and a kon of 214000 M⁻¹ s⁻¹.

On to B9, for which the Kd stood at 9.42 nM, the koff was 0.0022 s⁻¹ and the on-rate (kon) was 234000 M⁻¹ s⁻¹.

Molecule B10 gave an equilibrium dissociation constant (Kd) of 13.6 nM, a koff of 0.000401 s⁻¹ and an on-rate constant (kon) of 29400 M⁻¹ s⁻¹.

As for B11, the Kd was determined as 11.6 nM, the off-rate (koff) amounted to 0.000886 s⁻¹ and the kon was 76300 M⁻¹ s⁻¹.

Molecule B3 came in with a Kd of 123 nM, a koff of 0.00116 s⁻¹ and a kon of 9490 M⁻¹ s⁻¹.

The molecule B4 registered a Kd of 0.887 nM, a koff of 6.7e-06 s⁻¹ and an on-rate (kon) of 7560 M⁻¹ s⁻¹.

With B12, the Kd was found to be 1.57 nM, the koff turned out to be 0.000535 s⁻¹ and the on-rate constant (kon) was determined as 341000 M⁻¹ s⁻¹.

Molecule B5 came in with a Kd of 0.065 nM, a koff of 2.49e-05 s⁻¹ and a kon of 383000 M⁻¹ s⁻¹.

Molecule B6 displayed a dissociation constant (Kd) of 564 nM, a dissociation rate constant (koff) of 0.00286 s⁻¹ and a kon of 5060 M⁻¹ s⁻¹.

In the case of B13, the dissociation constant Kd came to 22.8 nM, the koff was found to be 0.000811 s⁻¹ and the on-rate (kon) is 35500 M⁻¹ s⁻¹.

Take B14: the dissociation constant (Kd) amounted to 6770 nM, the koff is 0.011 s⁻¹ and the kon was determined as 1630 M⁻¹ s⁻¹.

As for B7, the Kd turned out to be 1.61 nM, the koff is 5.47e-05 s⁻¹ and the kon is 34000 M⁻¹ s⁻¹.

Regarding B15, the Kd was 39.5 nM, the koff was 0.00095 s⁻¹ and the kon came out at 24000 M⁻¹ s⁻¹.

For the molecule B8, the dissociation constant (Kd) came out at 0.177 nM, the koff came to 1.57e-05 s⁻¹ and the kon was determined as 88900 M⁻¹ s⁻¹.

In the case of B16, the Kd is 0.474 nM, the koff stood at 2.18e-05 s⁻¹ and the kon was found to be 46000 M⁻¹ s⁻¹.
